# Test results reported in patent US20090208994A1, “GENETIC INCORPORATION OF 3-AMINOTYROSINE INTO REDUCTASES” (THE SCRIPPS RESEARCH INSTITUTE, priority 2007, published 2009).
# T1: wt β2, P69924
# T1 chain: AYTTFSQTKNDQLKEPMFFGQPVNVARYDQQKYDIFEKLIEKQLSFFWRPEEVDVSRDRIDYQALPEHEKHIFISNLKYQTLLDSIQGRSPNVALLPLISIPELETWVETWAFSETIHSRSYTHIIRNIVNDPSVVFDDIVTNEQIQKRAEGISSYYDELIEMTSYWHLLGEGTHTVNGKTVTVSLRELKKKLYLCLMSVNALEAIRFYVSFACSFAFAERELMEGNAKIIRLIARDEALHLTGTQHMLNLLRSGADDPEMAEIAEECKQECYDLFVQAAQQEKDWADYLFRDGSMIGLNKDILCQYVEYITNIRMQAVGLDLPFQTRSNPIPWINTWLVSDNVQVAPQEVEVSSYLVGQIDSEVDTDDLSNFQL
# Assays:
# [1] = test system: DH10B E. coli cells; assay: Toxicity of NH2Y: growth in liquid GMML medium and on agar plates; format: cell-based
# Description: Toxicity and uptake of NH2Y. Evolution of an NH2Y-specific aminoacyl-tRNA synthetase (RS) requires that NH2Y is taken up by E. coli, that it is not toxic, and that it is not incorporated into proteins by any endogenous RSs. All three requirements were met by NH2Y. […] The presence of DTT however, caused cells to grow at a rate 25-35% more slowly than those in the presence of only NH2Y or absence of NH2Y/DTT.
# [2] = pH 7; cited from earlier work
# [3] = target: T2, E. coli ribonucleotide reductase (α2β2 complex) (Escherichia coli, UniProt P00452); details: previous studies; inactivation of wt α2β2 by N3ADP/dGTP; 20 s time scale; cited from earlier work
# T2 construct: made in house; host or cells: E. coli DH10B for the NH2Y-α2s
# [4] = target: T1, wt β2, P69924
# [5] = target: wt β2 (E. coli) (UniProt P69924); assay: cell-based or functional assay
molecule,measurement,setting,value
"O[C@H](CS)[C@H](O)CS (racemic) [DTT, DL-dithiothreitol]",cells grow more slowly (rate),[1]; presence of DTT (0.1 mM) vs. only NH2Y or absence of NH2Y/DTT,25-35%
"Nc1cc(C[C@H](N)C(=O)O)ccc1O [NH2Y, 3-aminotyrosine]",effect on growth rates,[1]; NH2Y (1 mM) or NH2Y/DTT in GMML medium and agar plates,not significantly affected
"N[C@@H](Cc1ccc(O)c(O)c1)C(=O)O [DOPA, 3,4-dihydroxyphenylalanine]",reduction potential lower than that of Y,[2],260 mV
"[N-]=[N+]=N[C@@H]1[C@H](O)[C@@H](COP(=O)(O)OP(=O)(O)O)O[C@H]1n1cnc2c(N)ncnc21 [N3ADP, 2′-Azido-2′-deoxyadenosine-5′-diphosphate]",initial Y122• lost (forming an equivalent amount of N•),[3],50-60%
Y730NH2Y-α2 (protein) MNQNLLVTKRDGSTERINLDKIHRVLDWAAEGLHNVSISQVELRSHIQFYDGIKTSDIHETIIKAAADLISRDAPDYQYLAARLAIFHLRKKAYGQFEPPALYDHVVKMVEMGKYDNHLLEDYTEEEFKQMDTFIDHDRDMTFSYAAVKQLEGKYLVQNRVTGEIYESAQFLYILVAACLFSNYPRETRLQYVKRFYDAVSTFKISLPTPIMSGVRTPTRQFSSCVLIECGDSLDSINATSSAIVKYVSQRAGIGINAGRIRALGSPIRGGEAFHTGCIPFYKHFQTAVKSCSQGGVRGGAATLFYPMWHLEVESLLVLKNNRGVEGNRVRHMDYGVQINKLMYTRLLKGEDITLFSPSDVPGLYDAFFADQEEFERLYTKYEKDDSIRKQRVKAVELFSLMMQERASTGRIYIQNVDHCNTHSPFDPAIAPVRQSNLCLEIALPTKPLNDVNDENGEIALCTLSAFNLGAINNLDELEELAILAVRALDALLDYQDYPIPAAKRGAMGRRTLGIGVINFAYYLAKHGKRYSDGSANNLTHKTFEAIQYYLLKASNELAKEQGACPWFNETTYAKGILPIDTYKKDLDTIANEPLHYDWEALRESIKTHGLRNSTLSALMPSETSSQISNATNGIEPPRGYVSIKASKDGILRQVVPDYEHLHDAYELLWEMPGNDGYLQLVGIMQKFIDQSISANTNYDPSRFPSGKVPMQQLLKDLLTAYKFGVKTLYYQNTRDGAEDAQDDLVPSIQDDGCESGACKI,"kobs / Ampl, 1st phase, without CDP/ATP",[4],No changes observed.
same,"kobs / Ampl, 2nd phase, without CDP/ATP",[4],No changes observed.
same,rate constant of formation of NH2Y• at 325 nm (fast phase),[4],13.6 ± 0.1 s⁻¹
same,rate constant of formation of NH2Y• at 325 nm (slow phase),[4],2.5 ± 0.1 s⁻¹
same,rate constant of loss of Y122• at 410 nm (fast phase),[4],12.0 ± 0.1 s⁻¹
same,rate constant of loss of Y122• at 410 nm (slow phase),[4],2.4 ± 0.1 s⁻¹
same,"kobs, 1st phase (stopped-flow UV-vis, Y122• loss / NH2Y730• formation, with CDP/ATP)",[4]; in 1/s,"12.8 ± 0.8, 20 ± 1"
same,"kobs, 2nd phase (stopped-flow UV-vis, Y122• loss / NH2Y730• formation, with CDP/ATP)",[4]; in 1/s,"2.5 ± 0.1, 19 ± 1"
"Y730NH2Y-α2 (enzyme, E. coli, UniProt P00452 1-761, looked up, 3-aminotyrosine (NH2Y) in place of Tyr at 730 (E. coli RNR numbering)) MNQNLLVTKRDGSTERINLDKIHRVLDWAAEGLHNVSISQVELRSHIQFYDGIKTSDIHETIIKAAADLISRDAPDYQYLAARLAIFHLRKKAYGQFEPPALYDHVVKMVEMGKYDNHLLEDYTEEEFKQMDTFIDHDRDMTFSYAAVKQLEGKYLVQNRVTGEIYESAQFLYILVAACLFSNYPRETRLQYVKRFYDAVSTFKISLPTPIMSGVRTPTRQFSSCVLIECGDSLDSINATSSAIVKYVSQRAGIGINAGRIRALGSPIRGGEAFHTGCIPFYKHFQTAVKSCSQGGVRGGAATLFYPMWHLEVESLLVLKNNRGVEGNRVRHMDYGVQINKLMYTRLLKGEDITLFSPSDVPGLYDAFFADQEEFERLYTKYEKDDSIRKQRVKAVELFSLMMQERASTGRIYIQNVDHCNTHSPFDPAIAPVRQSNLCLEIALPTKPLNDVNDENGEIALCTLSAFNLGAINNLDELEELAILAVRALDALLDYQDYPIPAAKRGAMGRRTLGIGVINFAYYLAKHGKRYSDGSANNLTHKTFEAIQYYLLKASNELAKEQGACPWFNETTYAKGILPIDTYKKDLDTIANEPLHYDWEALRESIKTHGLRNSTLSALMPSETSSQISNATNGIEPPRGYVSIKASKDGILRQVVPDYEHLHDAYELLWEMPGNDGYLQLVGIMQKFIDQSISANTNYDPSRFPSGKVPMQQLLKDLLTAYKFGVKTLYYQNTRDGAEDAQDDLVPSIQDDGCESGACKI","Ampl, 1st phase (% of total initial Y122• trapped, with CDP/ATP)",[5],20%
same,"Ampl, 2nd phase (% of total initial Y122• trapped, with CDP/ATP)",[5],19%
same,"EPR spin quantitation at 10 s: share of remaining spin in the new signal (NH2Y730•), with CDP/ATP",[5],53%
same,total initial Y122• consumed at 2 s,[5],39%
"Y731NH2Y-α2 (enzyme, E. coli, UniProt P00452 1-761, looked up, 3-aminotyrosine (NH2Y) in place of Tyr at 731 (E. coli RNR numbering)) MNQNLLVTKRDGSTERINLDKIHRVLDWAAEGLHNVSISQVELRSHIQFYDGIKTSDIHETIIKAAADLISRDAPDYQYLAARLAIFHLRKKAYGQFEPPALYDHVVKMVEMGKYDNHLLEDYTEEEFKQMDTFIDHDRDMTFSYAAVKQLEGKYLVQNRVTGEIYESAQFLYILVAACLFSNYPRETRLQYVKRFYDAVSTFKISLPTPIMSGVRTPTRQFSSCVLIECGDSLDSINATSSAIVKYVSQRAGIGINAGRIRALGSPIRGGEAFHTGCIPFYKHFQTAVKSCSQGGVRGGAATLFYPMWHLEVESLLVLKNNRGVEGNRVRHMDYGVQINKLMYTRLLKGEDITLFSPSDVPGLYDAFFADQEEFERLYTKYEKDDSIRKQRVKAVELFSLMMQERASTGRIYIQNVDHCNTHSPFDPAIAPVRQSNLCLEIALPTKPLNDVNDENGEIALCTLSAFNLGAINNLDELEELAILAVRALDALLDYQDYPIPAAKRGAMGRRTLGIGVINFAYYLAKHGKRYSDGSANNLTHKTFEAIQYYLLKASNELAKEQGACPWFNETTYAKGILPIDTYKKDLDTIANEPLHYDWEALRESIKTHGLRNSTLSALMPSETSSQISNATNGIEPPRGYVSIKASKDGILRQVVPDYEHLHDAYELLWEMPGNDGYLQLVGIMQKFIDQSISANTNYDPSRFPSGKVPMQQLLKDLLTAYKFGVKTLYYQNTRDGAEDAQDDLVPSIQDDGCESGACKI","Ampl, 1st phase (% of total initial Y122• trapped, with CDP/ATP)",[5],24%
same,"Ampl, 2nd phase (% of total initial Y122• trapped, with CDP/ATP)",[5],11%
same,"EPR spin quantitation at 10 s: share of remaining spin associated with NH2Y731•, with CDP/ATP",[5],45%
same,total initial Y122• consumed at 2 s,[5],35%
